The data set addresses T1, rZur (ZurPA, Np20) (Pseudomonas aeruginosa PAO1?) (UniProt Q9HT74).
T1 sequence: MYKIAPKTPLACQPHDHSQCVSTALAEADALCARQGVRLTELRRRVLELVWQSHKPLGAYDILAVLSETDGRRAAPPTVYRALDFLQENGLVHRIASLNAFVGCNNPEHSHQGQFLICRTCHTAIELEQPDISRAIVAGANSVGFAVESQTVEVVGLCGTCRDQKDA
As to the kind of experiment: EMSA. The conditions noted are these: 10 mM Tris-HCl pH 8.0, 40 mM KCl, 10 mM MgCl2, 1 mM DTT, 5% glycerol, 1 uM ZnCl2, 0.5 ug salmon sperm DNA; room temperature 30 min; gel at 4 C. A general note: Mobility shift assays separate free from complexed probe on a gel.

For the sequence “CGGCGAAGCCAGCAGGAACAGGGCGAAGCAGGCGGACAGCAGGGCAAAGGGACGCAGGGTCACGGCGGCACTCACATGAAAGGTGGTTAGCGGGTAATATAATAACGTCTCTACCCTCGAGCGTCGCAGCCCATGTACAAGATTGCGCCCAAGACCCCGCTGGCCTGCCAGCCCCATGACCACAGCCAGTGCGTCAGCA (double strand) [znuA promoter fragment]”, the binding result is given as “binds”.
